Experiments:
[1] = biological target: human IgG1 (Homo sapiens, UniProt P01857); test: action of human and bacterial proteases on human IgG1 (Table 1); format: biochemical; conditions: for Major Product: None = no detectable cleavage in 24 hours; for Cleaved Site: human IgG1 heavy chain, EU numbering
Procedure: Table 1 is a summary of the findings concerning the action of human proteases and two bacterial proteases on human IgG1. The term “Coagulation proteinases” refers to serum coagulation cascade proteins including; FXIIa, FIXa, FXa, thrombin and activated protein C; plasmin was plasminogen co-incubated with plasminogen activators; tPA, streptokinase and staphylokinase; “plasminogen activators alone” are without plasminogen; and the MMPs were recombinant proteinases obtained either as the active form or the pro-enzyme as detailed in the Materials; and “None” denotes no detectable cleavage in 24 hours. Except where indicated all enzymes where human. The residue designations are for the EU numbering system for the IgG1 antibody heavy chain where the 25 residues of SEQ ID NO: 1 corresponds to residues 219 through 243 of the complete mature heavy chain.

[2] = test system: platelets; test: circulating platelet counts in dogs; format: in vivo, dog; conditions: for platelet clearance: dose finding
Procedure: First, the c7E3 antibody antigen binding and platelet depletion parameters were established in dogs.
c7E3 IgG and c7E3 IgG single-cleaved by IdeS protease were also compared in vivo. Three groups of 5 animals received either saline control, intact c7E3 IgG (0.05 mg/kg) or c7E3 single-cleaved IgG (0.05 mg/kg). Platelet counts were monitored at baseline and at 2, 24, 48, 72 and 96 hours post-administration. Limiting the study to 5 days minimized the likelihood of anti-c7E3 immune responses that might confound the interpretation of the results. The results are presented in FIG. 3 as the mean platelet count±SD for each animal group at each time point. The extent of the error bars connotes the normal variability of platelet counts in different animals (for example, the predose counts for the 5 animals in the single-cleaved IgG treatment group were 175,000, 355,000, 305,000, 276,000 and 334,000 per μL, respectively).
To be consistent with the prior experiments, the variants of c7E3 were all administered at the 0.05 mg/kg dose. The unique aspect of the experiment (groups 6 and 7) involves the infusion of the first targeting mAb followed by the cleavage site specific mAb after a 10 minute delay. The cleavage site specific IdeS cleavage site mAb, 2095-2, was administered at 0.5 mg/kg; 10-fold higher than the dose used for all of the c7E3 variants. The higher dose was chosen in order to maximize the complexation of cleavage site specific mAb with platelet-bound c7E3 variants. All mAbs were delivered by slow infusion over a 20 minute period. Platelet counts were monitored over a 96-hour period. The platelet counts were normalized to the pre-dose count within each animal for clarity of presentation and to minimize the normal variability in numerical platelet counts in these small 3-animal groups.

[3] = test system: platelets; test: circulating platelet counts in dogs; format: in vivo, dog; conditions: dose finding
[4] = FIG. 12 study, groups of 3 animals, c7E3 variants 0.05 mg/kg, 2095-2 0.5 mg/kg

Sequence of human IgG1 (P01857 1-330 isoform P01857-1, other chains not shown): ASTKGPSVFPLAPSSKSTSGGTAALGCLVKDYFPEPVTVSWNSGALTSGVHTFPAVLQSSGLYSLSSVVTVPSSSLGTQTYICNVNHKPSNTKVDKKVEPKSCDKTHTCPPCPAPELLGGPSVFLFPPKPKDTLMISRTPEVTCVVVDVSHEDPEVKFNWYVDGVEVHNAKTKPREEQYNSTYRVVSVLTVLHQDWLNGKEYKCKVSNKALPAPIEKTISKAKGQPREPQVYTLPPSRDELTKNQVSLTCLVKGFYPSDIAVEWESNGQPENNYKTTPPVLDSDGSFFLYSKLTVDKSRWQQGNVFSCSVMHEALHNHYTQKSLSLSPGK

B1: Macrophage metalloelastase (MMP-12): recombinant human MMP (protein, UniProt P39900 106-470, looked up)
Macrophage metalloelastase: GPVWRKHYITYRINNYTPDMNREDVDYAIRKAFQVWSNVTPLKFSKINTGMADILVVFARGAHGDFHAFDGKGGILAHAFGPGSGIGGDAHFDEDEFWTTHSGGTNLFLTAVHEIGHSLGLGHSSDPKAVMFPTYKYVDINTFRLSADDIRGIQSLYGDPKENQRLPNPDNSEPALCDPNLSFDAVTTVGNKIFFFKDRFFWLKVSERPKTSVNLISSLWPTLPSGIEAAYEIEARNQVFLFKDDKYWLISNLRPEPNYPKSIHSFGFPNFVKKIDAAVFNPRFYRTYFFVDNQYWRYDERRQMMDPGYPKLITKNFQGIGPKIDAVFYSKNKYYYFFQGSNQFEYDFLLQRITKTLKSNSWFGC
Major Product [1]: F(ab′)2 + | Cleaved Site [1]: Pro^232-

B2: Plasmin: plasminogen co-incubated with plasminogen activators (protein, UniProt P00747 20-580; P00747 581-810, looked up)
Plasmin heavy chain A: EPLDDYVNTQGASLFSVTKKQLGAGSIEECAAKCEEDEEFTCRAFQYHSKEQQCVIMAENRKSSIIIRMRDVVLFEKKVYLSECKTGNGKNYRGTMSKTKNGITCQKWSSTSPHRPRFSPATHPSEGLEENYCRNPDNDPQGPWCYTTDPEKRYDYCDILECEEECMHCSGENYDGKISKTMSGLECQAWDSQSPHAHGYIPSKFPNKNLKKNYCRNPDRELRPWCFTTDPNKRWELCDIPRCTTPPPSSGPTYQCLKGTGENYRGNVAVTVSGHTCQHWSAQTPHTHNRTPENFPCKNLDENYCRNPDGKRAPWCHTTNSQVRWEYCKIPSCDSSPVSTEQLAPTAPPELTPVVQDCYHGDGQSYRGTSSTTTTGKKCQSWSSMTPHRHQKTPENYPNAGLTMNYCRNPDADKGPWCFTTDPSVRWEYCNLKKCSGTEASVVAPPPVVLLPDVETPSEEDCMFGNGKGYRGKRATTVTGTPCQDWAAQEPHRHSIFTPETNPRAGLEKNYCRNPDGDVGGPWCYTTNPRKLYDYCDVPQCAAPSFDCGKPQVEPKKCPGR
Plasmin light chain B: VVGGCVAHPHSWPWQVSLRTRFGMHFCGGTLISPEWVLTAAHCLEKSPRPSSYKVILGAHQEVNLEPHVQEIEVSRLFLEPTRKDIALLKLSSPAVITDKVIPACLPSPNYVVADRTECFITGWGETQGTFGAGLLKEAQLPVIENKVCNRYEFLNGRVQSTELCAGHLAGGTDSCQGDSGGPLVCFEKDKYILQGVTSWGLGCARPNKPGVYVRVSRFVTWIEGVMRNN
modifications: plasmin
Major Product [1]: Fab + Fc | Cleaved Site [1]: Lys^223-

B3: Chymase: human protease (protein, UniProt P23946 22-247, looked up)
Chymase: IIGGTECKPHSRPYMAYLEIVTSNGPSKFCGGFLIRRNFVLTAAHCAGRSITVTLGAHNITEEEDTWQKLEVIKQFRHPKYNTSTLHHDIMLLKLKEKASLTLAVGTLPFPSQFNFVPPGRMCRVAGWGRTGVLKPGSDTLQEVKLRLMDPQACSHFRDFDHNLQLCVGNPRKTKSAFKGDSGGPLLCAGVAQGIVSYGRSDAKPPAVFTRISHYRPWINQILQAN
Major Product [1]: None

B4: Proteinase 3: human protease (protein, UniProt P24158 28-248, looked up)
Myeloblastin: IVGGHEAQPHSRPYMASLQMRGNPGSHFCGGTLIHPSFVLTAAHCLRDIPQRLVNVVLGAHNVRTQEPTQQHFSVAQVFLNNYDAENKLNDVLLIQLSSPANLSASVATVQLPQQDQPVPHGTQCLAMGWGRVGAHDPPAQVLQELNVTVVTFFCRPHNICTFVPRRKAGICFGDSGGPLICDGIIQGIDSFVIWGCATRLFPDFFTRVALYVDWIRSTLR
Major Product [1]: None

B5: Cathepsin S: human cysteine endopeptidase (protein, UniProt P25774 115-331, looked up)
Cathepsin S: LPDSVDWREKGCVTEVKYQGSCGACWAFSAVGALEAQLKLKTGKLVSLSAQNLVDCSTEKYGNKGCNGGFMTTAFQYIIDNKGIDSDASYPYKAMDQKCQYDSKYRAATCSKYTELPYGREDVLKEAVANKGPVSVGVDARHPSFFLYRSGVYYEPSCTQNVNHGVLVVGYGDLNGKEYWLVKNSWGHNFGEEGYIRMARNKGNHCGIASFPSYPEI
Major Product [1]: None

B6: c7E3 IgG: anti-platelet integrin (αIIbβIIIa) murine-human IgG1 chimeric antibody (antibody, chains of the INN, looked up, V domains shown)
VH: EVQLQQSGTVLARPGASVKMSCEASGYTFTNYWMHWVKQRPGQGLEWIGAIYPGNSDTSYIQKFKGKAKLTAVTSTTSVYMELSSLTNEDSAVYYCTLYDGYYVFAYWGQGTLVTVSA
VL: EIVLTQSPVTLSVTPGDSVSLSCRASRDISNNLHWFQQTSHESPRLLIKYASQSMSGIPSRFSGSGSGTDFTLSINSVETEDFGMYFCQQTNSWPYTFGGGTKLEIK
modifications: IgG1
notes: anti-platelet integrin (αIIbβIIIa) murine-human IgG1 chimeric antibody
platelet count recovery ([2]; 0.05 mg/kg, by 96 hours): approximately 50 % of the pre-dose level | time of platelet nadir ([2]; 0.05 mg/kg, groups of 5 animals): 24 h | effect on platelet numbers ([2]; 0.05 mg/kg, groups of 5 animals, monitored to 96 hours): substantial decrease | start of recovery of platelet numbers ([2]; FIG. 12 study, 0.05 mg/kg): approximately 72 hours | time of platelet nadir ([2]; FIG. 12 study, 0.05 mg/kg): 24 to 48 h | effect on platelet numbers [2, 4]: substantial platelet clearance | platelet clearance in pilot study ([2]; after 24 hours, recovery over 5 days): profound platelet clearance | αIIβ3 receptor blockade ([2]; calculated for the 0.05 mg/kg dose): about 5% | platelet clearance ([2]; 0.05 mg/kg, 2 hours): little effect | platelet clearance ([2]; 0.05 mg/kg, 24 hours): > 90% | time to platelet clearance ([2]; doses >0.05 mg/kg): ≤ 24 h | platelet clearance ([3]; 0.01 mg/kg, 2 and 24 hours): ineffective | platelet clearance ([3]; 0.2 mg/kg, at 2 hours, maintained at 24 hours): profound platelet clearance

B7: c7E3 F(ab′)2: F(ab′)2 of c7E3 prepared using the bacterial enzyme IdeS (antibody, chains of the INN, looked up, V domains shown)
VH: B6 VH
VL: B6 VL
modifications: F(ab')2 IdeS-generated
notes: F(ab′)2 of c7E3 prepared using the bacterial enzyme IdeS
effect on platelet numbers [2, 4]: without effect
